According to patent publication US20200347144A1:

What was measured:
[1] = target: monkey 4-1BB-his protein (monkey); experiment: ELISA, coated monkey 4-1BB-his; Ab 0.08 ug/ml
GITR = experiment: ELISA, coated GITR; Ab concentration not given
[2] = target: hFc-tagged human 4-1BB extracellular domain protein (4-1BB-hFc) (human) (UniProt Q07011); experiment: ELISA, coated 4-1BB; Ab concentration not given
[3] = target: monkey 4-1BB-his protein (monkey); experiment: ELISA, coated monkey 4-1BB-his; Ab 0.0001 ug/ml
[4] = target: monkey 4-1BB-his protein (monkey); experiment: ELISA, coated monkey 4-1BB-his; Ab 0.4 ug/ml
[5] = target: monkey 4-1BB-his protein (monkey); experiment: ELISA, coated monkey 4-1BB-his; Ab 2 ug/ml
[6] = target: monkey 4-1BB-his protein (monkey); experiment: ELISA, coated monkey 4-1BB-his; Ab 10 ug/ml
OX40 = experiment: ELISA, coated OX40; Ab concentration not given
[7] = target: monkey 4-1BB-his protein (monkey); experiment: ELISA, coated monkey 4-1BB-his; Ab 0.016 ug/ml
[8] = target: monkey 4-1BB-his protein (monkey); experiment: ELISA, coated monkey 4-1BB-his; Ab 0.0032 ug/ml
[9] = target: monkey 4-1BB-his protein (monkey); experiment: ELISA, coated monkey 4-1BB-his; Ab 0.0006 ug/ml

hFc-tagged human 4-1BB extracellular domain protein (4-1BB-hFc) (human), sequence (Q07011 24-186 limits assumed): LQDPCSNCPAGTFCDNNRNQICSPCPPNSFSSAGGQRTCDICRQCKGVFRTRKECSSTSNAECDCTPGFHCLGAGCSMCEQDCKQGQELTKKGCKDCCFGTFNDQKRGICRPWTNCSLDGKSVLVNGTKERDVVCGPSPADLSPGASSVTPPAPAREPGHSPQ
GITR, sequence (Q9Y5U5 26-162): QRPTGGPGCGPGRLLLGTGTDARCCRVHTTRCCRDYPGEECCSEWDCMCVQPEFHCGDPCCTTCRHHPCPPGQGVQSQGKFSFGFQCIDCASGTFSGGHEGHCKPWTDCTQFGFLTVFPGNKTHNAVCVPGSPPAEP
OX40, sequence (P43489 29-214): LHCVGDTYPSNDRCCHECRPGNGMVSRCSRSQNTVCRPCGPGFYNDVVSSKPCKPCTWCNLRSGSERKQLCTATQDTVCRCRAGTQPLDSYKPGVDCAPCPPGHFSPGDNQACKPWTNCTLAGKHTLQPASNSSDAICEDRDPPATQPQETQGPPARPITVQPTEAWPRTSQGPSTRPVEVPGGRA

- OD450 nm [1]: 0.07 OD450 nm
- OD450 nm (GITR): 0.24 OD450 nm
- OD450 nm [2]: 0.36 OD450 nm
- OD450 nm [3]: 0.07 OD450 nm
- OD450 nm [4]: 0.07 OD450 nm
- OD450 nm [5]: 0.07 OD450 nm
- OD450 nm [6]: 0.07 OD450 nm
- OD450 nm (OX40): 0.32 OD450 nm
- OD450 nm [7]: 0.07 OD450 nm
- OD450 nm [8]: 0.07 OD450 nm
- OD450 nm [9]: 0.07 OD450 nm
Substance: IgG control (human IgG) (antibody)
